Residue numbers refer to the chain shown, from its start.
T1: human IL4RA-hFc (human, UniProt P24394 26-232)
T1 construct: mature; Coating antigen in ELISA
T1 sequence (looked up): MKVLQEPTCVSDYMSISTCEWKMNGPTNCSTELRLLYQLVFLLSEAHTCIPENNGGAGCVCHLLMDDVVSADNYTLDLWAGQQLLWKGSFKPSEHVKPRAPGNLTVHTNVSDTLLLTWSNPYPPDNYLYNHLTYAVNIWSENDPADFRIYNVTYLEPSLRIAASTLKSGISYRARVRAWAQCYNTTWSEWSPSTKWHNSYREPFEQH

B1: 13E5 (antibody, V domains shown)
VH: EVQLQQSGPELVKPGASVKISCKTSGYTFTEYTIHWVKQNHGKSLEWIGGINPNNGGTVYNQNFKGKATLTVDKSSSTAYMELRSLTSEDSAVYYCARVRRGMDYWGQGTSVTVSS
VL: DIVMTQSHKFMSTSVGDRVSITCKASQDVTTAVAWYQQKPGQSPKLLIYSASYRYTGVPDRFTGSGSGTDFTFTISSVQAEDLAVYYCQQHYSAPWTFGGGTNLEIK
notes: Murine hybridoma antibody purified on protein A; also called murine antibody 13E5; antibody secreted by hybridoma LT008 (IL4RA-13E5)
B2: 18H7 (antibody, V domains shown)
VH: DVKLVESGGDLVNLGGSLKLSCAASGFTFSSSYMSWVRQTPERRLELVAAINSNGGKTYYPDTVKGRFTISRDNAKNTLYLQMSGLKTEDTALYYCTRQRGNYVGAMDYWGQGTSVTVSS
VL: B1 VL with T30S, A34V, K45T, Q89H, H91Y, S93G, A94S, W96P, N103K
notes: Murine hybridoma antibody purified on protein A; also called murine antibody 18H7; antibody secreted by hybridoma LT009 (IL4RA-18H7)

Columns and labels:
human IL4RA-hFc [1] = target: T1, human IL4RA-hFc; test: competitive ELISA; blocks IL4-N-His binding to coated IL4RA-hFc
human IL4RA-hFc [2] = target: T1, human IL4RA-hFc; test: competitive ELISA vs IL4-N-His; Ab 3 ug/mL
Experimental: (§1) The ELISA plates were coated with human IL4RA-hFc and blocked before the antibodies were added. […] After the plates were washed, mouse anti-His, HRP (purchased from CoWin Biosciences, Cat No. CW0285A) was added for incubation. The plates were subjected to another wash. Chromogenic reaction was started by adding TMB (Neogen, 308177) and was then terminated. At the end of the reaction, the OD value at 450 nm wavelength was measured by a plate reader, and was analyzed and processed by SoftMax Pro 6.2.1.
(§2) By 4-parameter logistic regression of absorbance vs. antibody concentration, the blocking EC₅₀ of the antibodies was calculated.

human IL4RA-hFc [3] = target: T1, human IL4RA-hFc; test: indirect ELISA, antigen coated 1 ug/mL
Experimental: Procedures: The ELISA plates were coated with human IL4RA-hFc or human IL4RA-mFc and were incubated, and target antibodies were added after blocking. […] The plates were incubated and washed before TMB (Neogen, 308177) was added for chromogenic reaction. At the end of the reaction, the absorbance at 450 nm was measured by a plate reader. The data were analyzed by SoftMax Pro 6.2.1.

human IL4RA-hFc [4] = target: T1, human IL4RA-hFc; test: competitive ELISA; blocks IL4-N-His (0.15 ug/ml) binding to coated IL4RA-hFc (2 ug/mL)
Experimental: as §1, with “CW0285M)” for “CW0285A)”
as §2

| EC50 (human IL4RA-hFc [1]) | OD450 (human IL4RA-hFc [2]) | EC50 (human IL4RA-hFc [3]) | EC50 (human IL4RA-hFc [4]) | Binder |
| --- | --- | --- | --- | --- |
| 3 nM | 0.053 | 0.084 nM |  | B1 |
|  |  | 0.068 nM | 2.71 nM | B2 |

Source: patent publication US20230295312A1 (AKESO BIOPHARMA, published 2023)
